Results on eight proteins are retold here after publication PMC11202230, “The Improved Antineoplastic Activity of Thermophilic L-Asparaginase Tli10209 via Site-Directed Mutagenesis” (Biomolecules, 2024).

Where a chain is given by its changes, count along the chain named. In names and notes the source's numbering stands.

B1: L-asparaginase Tli10209 (Thermococcus litoralis DSM 5473; D50G/T70A) (protein)
chain: MSEKRKLERRGAEDMKRILIIGTGGTIASAKTDAGFKSVLTIDEILEKAGIKLKNGYEIDTRNILNIDSALIQPEDWERIAKEVYKALEDYDGIVITHGTDTLAYTASMLTFMIRGINKPVVLTGSMRPVTEEESDAPRNLKAAIRFAMEDVSGIFVAFMDKIMLGCRTSKIRALGLNAFMSINYPDVAYVKGEEVIYNLPQKRFKPKGEPVLDTKYEPRVVFIRLTPGLDGNAIDALVKAGYRGIVLEGYGAGGIPYRKRDILSKIREITPQIPVVMTTQALYDGVDLTKYEVGRKALEAGIIPAKDMTKETTITKLMWALGHTKNVEEVKEIMHTNYADEIEG
B2: L-asparaginase Tli10209 (Thermococcus litoralis DSM 5473; F36Y/T70A) (protein)
chain: B1 chain with F36Y, G50D
B3: L-asparaginase Tli10209 (Thermococcus litoralis DSM 5473; D50G) (protein)
chain: B1 chain with A70T
B4: L-asparaginase Tli10209 (Thermococcus litoralis DSM 5473; K48L) (protein)
chain: B1 chain with K48L, G50D, A70T
B5: L-asparaginase Tli10209 (Thermococcus litoralis DSM 5473; K48L/T70A) (protein)
chain: B1 chain with K48L, G50D
B6: L-asparaginase Tli10209 (Thermococcus litoralis DSM 5473; T70A) (protein)
chain: B1 chain with G50D
B7: L-asparaginase Tli10209 (Thermococcus litoralis DSM 5473; F36Y) (protein)
chain: B1 chain with F36Y, G50D, A70T
B8: L-asparaginase Tli10209 (Thermococcus litoralis DSM 5473) (protein)
chain: B1 chain with G50D, A70T

Substrate in the data set: NC(=O)C[C@H](N)C(=O)O
In words: Nessler reagent assay of ammonia, Michaelis-Menten fit. In kind it is biochemical, Thermococcus litoralis. The following applies: pH 10, 80 °C, 0.5-18.0 mM L-asparagine, free enzyme. An excerpt: Nessler reagent assay of ammonia, Michaelis-Menten fit on L-asparaginase Tli10209
For orientation: Km means the substrate concentration at which the rate is half of its maximum. One may read the kcat as the number of substrate molecules converted per active site and unit of time at saturation. The kcat/Km is the second-order rate constant that governs catalysis at low substrate concentration. In the case of B1, the Km is reported as 2.68 mM, the kcat stood at 2050 s⁻¹ and the kcat/Km is 764000 M⁻¹ s⁻¹.

Take B2: the Km worked out at 6.28 mM, the turnover number (kcat) stood at 2930 s⁻¹ and the specificity constant (kcat/Km) was 466000 M⁻¹ s⁻¹.

With B3, the Km was 9.03 mM, the kcat is 3890 s⁻¹ and the catalytic efficiency (kcat/Km) stood at 431000 M⁻¹ s⁻¹.

Consider B4, for which the Km amounted to 9.62 mM, the kcat stood at 5080 s⁻¹ and the kcat/Km worked out at 528000 M⁻¹ s⁻¹.

As for B5, the Km turned out to be 6.65 mM, the kcat came out at 2760 s⁻¹ and the kcat/Km stood at 415000 M⁻¹ s⁻¹.

B6: the Km was found to be 7.90 mM, the kcat was found to be 4150 s⁻¹ and the kcat/Km was determined as 525000 M⁻¹ s⁻¹.

Consider B7, for which the Km turned out to be 7.00 mM, the kcat was 2500 s⁻¹ and the kcat/Km amounted to 357000 M⁻¹ s⁻¹.

In the case of B8, the Km is 6.78 mM, the kcat was determined as 2300 s⁻¹ and the kcat/Km was 340000 M⁻¹ s⁻¹.
